{"source": "patent US9303249B2", "about": "“High concentration α-glucosidase compositions for the treatment of Pompe disease” (Amicus Therapeutics, Inc., priority 2012, dated 2016)", "test_system": "GAA KO mice", "experiment": "Tissue GAA activity after repeat SQ with varying 1-DNJ (Example 16)", "assay_type": "in vivo, mouse", "settings": "Lumizyme 20 mg/kg SQ alone, 4 doses, 3 days after last dose", "procedure": "14-week old male GAA KO mice in groups of 7 were used in the present study. Each group of mice was administered one of the following treatments:\n(2) Lumizyme® alone (20 mg/kg) delivered subcutaneously (SQ);\n(3) Co-formulated Lumizyme® (20 mg/kg) and 1-DNJ (3 mg/kg) SQ.\n(4) Co-formulated Lumizyme® (20 mg/kg) and 1-DNJ (10 mg/kg) SQ.\n(5) Co-formulated Lumizyme® (20 mg/kg) and 1-DNJ (30 mg/kg) SQ.\nEach of the treatments was administered to their respective treatment group for a period of 2 weeks. The treatments were administered on Monday and Thursday of each week. SQ injections were administered between the shoulder blades of each mouse receiving treatment. A total of 4 doses were administered to each study animal.\nTissue samples were collected to determine rhGAA uptake 3 days following the last dose of the study (i.e., 3 days post dose 4). Tissue samples included heart, tongue, diaphragm, triceps, quads, gastrocnemius, ventral skin and dorsal skin from the SQ injection site. Tissue samples were also collected to determine glycogen concentration 14 days following the last dose of the study (i.e., 14 days post dose 4).\nFIGS. 47-54 show tissue GAA activity 3 days following the final administration, and glycogen levels 14 days following the final administration. GAA activities in tissues were determined using a 4-MUG fluorogenic substrate assay. Glycogen levels were determined using a glycogen assay (see Example 9 for method). Lumizyme® alone administered subcutaneously led to uptake of enzyme in all investigated tissues following repeat administrations.", "data": [{"substance": "Lumizyme®: alglucosidase alfa, recombinant human acid α-glucosidase from Genzyme Corporation", "values": [{"measurement": "GAA Activity", "setting": "Biceps", "result": 45.9, "unit": "nmol/mg/h"}, {"measurement": "GAA Activity", "setting": "Diaphragm", "result": 10.6, "unit": "nmol/mg/h"}, {"measurement": "GAA Activity", "setting": "Gastrocnemius", "result": 1, "unit": "nmol/mg/h"}, {"measurement": "GAA Activity", "setting": "Heart", "result": 1.9, "unit": "nmol/mg/h"}, {"measurement": "GAA Activity", "setting": "Quadriceps", "result": 1.3, "unit": "nmol/mg/h"}, {"measurement": "GAA Activity", "setting": "Skin", "result": 43.9, "unit": "nmol/mg/h"}, {"measurement": "GAA Activity", "setting": "Soleus", "result": 0.9, "unit": "nmol/mg/h"}, {"measurement": "GAA Activity", "setting": "Tongue", "result": 2.3, "unit": "nmol/mg/h"}, {"measurement": "GAA Activity", "setting": "Triceps", "result": 151.3, "unit": "nmol/mg/h"}]}]}
